Legend:
EGFR on the cell surface = target: T1, EGFR on the cell surface (human, UniProt P00533 25-1210); test: flow cytometry on cells, 2 ug/mL, N-terminal VD;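 note: cells stained for 30 to 60 min on ice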
T1 construct: whole, on cells
Description: Stable cell lines overexpressing a cell-surface antigen of interest or human tumor cell lines were harvested from tissue culture flasks and resuspended in phosphate buffered saline (PBS) containing 5% fetal bovine serum (PBS/FBS). Prior to staining, human tumor cells were incubated on ice with (100 μl) human IgG at 5 μg/ml in PBS/FCS. 1-5×10⁵ cells were incubated with antibody or DVD-Ig (2 μg/mL) in PBS/FBS for 30-60 minutes on ice. […] After 30 minutes incubation on ice, cells were washed twice and resuspended in PBS/FBS. Fluorescence was measured using a Becton Dickinson FACSCalibur (Becton Dickinson, San Jose, Calif.).
The geometric mean is the n root of the multiplication product of n fluorescent signals (a1×a2×a3 . . . an). With log-transformed data the geometric mean is used to normalize the weighting of the data distribution.

[1] = target: T2, Recombinant Human MSP Receptor ECD-His tag (human, UniProt Q04912 25-957); test: SPR (Biacore), C-terminal VD;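 note: surface plasmon resonance with DVD-Ig proteins captured on an anti-IgG chip and recombinant antigen flowed over in HBS-EP buffer, Langmuir global fit, KD taken as koff/kon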
T2 construct: extracellular domain; bought reagent; also called RON
Description: The BIACORE assay (Biacore, Inc, Piscataway, N.J.) determined the affinity of antibodies or DVD-Ig proteins with kinetic measurements of on-rate and off-rate constants. Binding of antibodies or DVD-Ig proteins to a target antigen (for example, a purified recombinant target antigen) was determined by surface plasmon resonance-based measurements with a Biacore® 1000 or 3000 instrument (Biacore AB, Uppsala. Sweden) using running HBS-EP (10 mM HEPES [pH 7.4], 150 mM NaCl, 3 mM EDTA, and 0.005% surfactant P20) at 25° C. […] For example, approximately 5000 RU of goat anti-mouse IgG, (Fcγ), fragment specific polyclonal antibody (Pierce Biotechnology Inc, Rockford, Ill.) diluted in 10 mM sodium acetate (pH 4.5) was directly immobilized across a CM5 research grade biosensor chip using a standard amine coupling kit according to manufacturer's instructions and procedures at 25 μg/ml. Unreacted moieties on the biosensor surface were blocked with ethanolamine. Modified carboxymethyl dextran surface in flowcell 2 and 4 was used as a reaction surface. Unmodified carboxymethyl dextran without goat anti-mouse IgG in flow cell 1 and 3 was used as the reference surface. For kinetic analysis, rate equations derived from the 1:1 Langmuir binding model were fitted simultaneously to association and dissociation phases of all eight injections (using global fit analysis) with the use of Biaevaluation 4.0.1 software. Purified antibodies or DVD-Ig proteins were diluted in HEPES-buffered saline for capture across goat anti-mouse IgG specific reaction surfaces. Antibodies or DVD-Ig proteins to be captured as a ligand (25 μg/ml) were injected over reaction matrices at a flow rate of 5 μl/minute. The association and dissociation rate constants, kₒₙ (M⁻¹s⁻¹) and koff (s⁻¹) were determined under a continuous flow rate of 25 μl/minute. Rate constants were derived by making kinetic binding measurements at different antigen concentrations ranging from 10-200 nM. The equilibrium dissociation constant (M) of the reaction between antibodies or DVD-Ig proteins and the target antigen was then calculated from the kinetic rate constants by the following formula: KD=koff/kₒₙ. Binding was recorded as a function of time and kinetic rate constants were calculated.

B1: DVD2342 (bispecific antibody)
VH: QVQLQESGPGLVKPSQTLSLTCTVSGYSISSDFAWNWIRQPPGKGLEWMGYISYSGNTRYQPSLKSRITISRDTSKNQFFLKLNSVTAADTATYYCVTAGRGFPYWGQGTLVTVSSASTKGPEVQLVESGGGLVQPGGSLRLSCAASGFTFTDYTMDWVRQAPGKGLEWVADVNPNSGGSIYNQRFKGRFTLSVDRSKNTLYLQMNSLRAEDTAVYYCARNLGPSFYFDYWGQGTLVTVSS
VL: DIQMTQSPSSMSVSVGDRVTITCHSSQDINSNIGWLQQKPGKSFKGLIYHGTNLDDGVPSRFSGSGSGTDYTLTISSLQPEDFATYYCVQYAQFPWTFGGGTKLEIKRTVAAPDIQMTQSPSSLSASVGDRVTITCKASQDVSIGVAWYQQKPGKAPKLLIYSASYRYTGVPSRFSGSGSGTDFTLTISSLQPEDFATYYCQQYYIYPYTFGQGTKVEIK
GEO MEAN (EGFR on the cell surface): 44.8

B2: DVD2335 (bispecific antibody)
VH: QVQLQQWGAGLLKPSETLSLTCAVYGGSFSGYYWSWIRQPPGKGLEWIGEINHSGSTNYNPSLKSRVTISVETSKNQFSLKLSSVTAADTAVYYCARDKWTWYFDLWGRGTLVTVSSASTKGPQVQLQESGPGLVKPSEILSLTCTVSGGSISSHYWSWVRQPPGKGLEWIGYIYYSGSTNYNPSLKSRVTISVDTSKNQFSLNLSSVTAADTAVYYCARIPNYYDRSGYYPGYWYFDLWGRGTLVTVSS
VL: DIEMTQSPDSLAVSLGERATINCRSSQSVLYSSSNRNYLAWYQQNPGQPPKLLIYWASTRESGVPDRFSGSGSGTDFTLTISSLQAEDVAVYYCQQYYSTPRTFGQGTKVEIKRTVAAPQAVLTQPSSLSAPPGASASLTCTLRSGFNVDSYRISWYQQKPGSPPQYLLRYKSDSDKQQGSGVPSRFSGSKDASANAGILLISGLQSEDEADYYCMIWHSSAWVFGGGTKLTVL
notes: DVD-Ig, outer AB062 / inner AB034
Kd [1]: 39 nM
koff [1]: 0.0051 s⁻¹
kon [1]: 130000 M⁻¹ s⁻¹

B3: DVD2306 (bispecific antibody)
VH: EVQLVESGGGLVQPGGSLRLSCAASGFSLTNYGVHWVRQAPGKGLEWLGVGWSGGNTDYNTPFTSRLTINKDNSKNTVYLQMNSLRAEDTAVYYCARALTWYDYEFAYWGQGTLVTVSSASTKGPEVQLVQSGGGLVKPGGSLRLSCAASGFTFSSFAMHWVRQAPGKGLEWISVIDTRGATYYADSVKGRFTISRDNAKNSLYLQMNSLRAEDTAVYYCARLGNFYYGMDVWGQGTTVTVSS
VL: DILLTQSPGTLSLSPGERATLSCRASQSIYTNIHWYQQKPGQAPRLLIKYASESISGIPDRFSGSGSGTDFTLTISRLEPEDFAVYYCQQNLNWPTTFGQGTKLEIKRTVAAPEIVLTQSPGTLSVSPGERATLSCRASQSIGSSLHWYQQKPGQAPRLLIKYASQSLSGIPDRFSGSGSGTDFTLTISRLEPEDFAVYYCHQSSRLPHTFGQGTKVEIK
notes: DVD-Ig, outer AB400 / inner AB077
GEO MEAN (EGFR on the cell surface): 546

B4: DVD2304 (bispecific antibody)
VH: EVQLVESGGGLVQPGGSLRLSCAASGFSLTNYGVHWVRQAPGKGLEWLGVGWSGGNTDYNTPFTSRLTINKDNSKNTVYLQMNSLRAEDTAVYYCARALTWYDYEFAYWGQGTLVTVSSASTKGPEVQLVQSGAEVKKPGSSVKVSCKASGGTFSSYAISWVRQAPGQGLEWMGGIIPIFGTANYAQKFQGRVTITADKSTSTAYMELSSLRSEDTAVYYCARAPLRFLEWSTQDHYYYYYMDVWGKGTTVTVSS
VL: DILLTQSPGTLSLSPGERATLSCRASQSIYTNIHWYQQKPGQAPRLLIKYASESISGIPDRFSGSGSGTDFTLTISRLEPEDFAVYYCQQNLNWPTTFGQGTKLEIKRTVAAPSSELTQDPAVSVALGQTVRITCQGDSLRSYYATWYQQKPGQAPILVIYGENKRPSGIPDRFSGSSSGNTASLTITGAQAEDEADYYCKSRDGSGQHLVFGGGTKLTVL
notes: DVD-Ig, outer AB400 / inner AB075
GEO MEAN (EGFR on the cell surface): 512

B5: DVD2298 (bispecific antibody)
VH: EVQLVESGGGLVQPGGSLRLSCAASGFSLTNYGVHWVRQAPGKGLEWLGVGWSGGNTDYNTPFTSRLTINKDNSKNTVYLQMNSLRAEDTAVYYCARALTWYDYEFAYWGQGTLVTVSSASTKGPEVQLVQSGGGLVKPGGSLRLSCAASGFTFSSYAMHWVRQAPGKGLEWVAVISYDGSNKYYADSVKGRFTISRDNSKNTLYLQMNSLRAEDTAVYYCARFSGWPNNYYYYGMDVWGQGTTVTVSS
VL: DILLTQSPGTLSLSPGERATLSCRASQSIYTNIHWYQQKPGQAPRLLIKYASESISGIPDRFSGSGSGTDFTLTISRLEPEDFAVYYCQQNLNWPTTFGQGTKLEIKRTVAAPDVVMTQSPLSLPVTPGEPASISCRSSQSLLHSNGFNYVDWYLQKPGQSPHLLIYFGSYRASGVPDRFSGSGSGTDFTLKISRVEAEDVGVYYCMQALQTPPWTFGQGTKVEIR
notes: DVD-Ig, outer AB400 / inner AB005
GEO MEAN (EGFR on the cell surface): 400

B6: DVD2302 (bispecific antibody)
VH: EVQLVESGGGLVQPGGSLRLSCAASGFSLTNYGVHWVRQAPGKGLEWLGVGWSGGNTDYNTPFTSRLTINKDNSKNTVYLQMNSLRAEDTAVYYCARALTWYDYEFAYWGQGTLVTVSSASTKGPEVQLVESGGGLVQPGGSLRLSCAASGFTFTDYTMDWVRQAPGKGLEWVADVNPNSGGSIYNQRFKGRFTLSVDRSKNTLYLQMNSLRAEDTAVYYCARNLGPSFYFDYWGQGTLVTVSS
VL: DILLTQSPGTLSLSPGERATLSCRASQSIYTNIHWYQQKPGQAPRLLIKYASESISGIPDRFSGSGSGTDFTLTISRLEPEDFAVYYCQQNLNWPTTFGQGTKLEIKRTVAAPDIQMTQSPSSLSASVGDRVTITCKASQDVSIGVAWYQQKPGKAPKLLIYSASYRYTGVPSRFSGSGSGTDFTLTISSLQPEDFATYYCQQYYIYPYTFGQGTKVEIK
notes: DVD-Ig, outer AB400 / inner AB080
GEO MEAN (EGFR on the cell surface): 563

B7: DVD2317 (bispecific antibody)
VH: EVQLVESGGGLVQPGGSLRLSCAASGFTFTDYTMDWVRQAPGKGLEWVADVNPNSGGSIYNQRFKGRFTLSVDRSKNTLYLQMNSLRAEDTAVYYCARNLGPSFYFDYWGQGTLVTVSSASTKGPEVQLVQSGGGLVKPGGSLRLSCAASGFTFSSYAMHWVRQAPGKGLEWVAVISYDGSNKYYADSVKGRFTISRDNSKNTLYLQMNSLRAEDTAVYYCARFSGWPNNYYYYGMDVWGQGTTVTVSS
VL: DIQMTQSPSSLSASVGDRVTITCKASQDVSIGVAWYQQKPGKAPKLLIYSASYRYTGVPSRFSGSGSGTDFTLTISSLQPEDFATYYCQQYYIYPYTFGQGTKVEIKRTVAAPDVVMTQSPLSLPVTPGEPASISCRSSQSLLHSNGFNYVDWYLQKPGQSPHLLIYFGSYRASGVPDRFSGSGSGTDFTLKISRVEAEDVGVYYCMQALQTPPWTFGQGTKVEIR
notes: DVD-Ig, outer AB080 / inner AB005
binding result [1]: no binding (tested: 10-200 nM)

B8: DVD2346 (bispecific antibody)
VH: QVQLQESGPGLVKPSQTLSLTCTVSGYSISSDFAWNWIRQPPGKGLEWMGYISYSGNTRYQPSLKSRITISRDTSKNQFFLKLNSVTAADTATYYCVTAGRGFPYWGQGTLVTVSSASTKGPEVQLVQSGGGLVKPGGSLRLSCAASGFTFSSFAMHWVRQAPGKGLEWISVIDTRGATYYADSVKGRFTISRDNAKNSLYLQMNSLRAEDTAVYYCARLGNFYYGMDVWGQGTTVTVSS
VL: DIQMTQSPSSMSVSVGDRVTITCHSSQDINSNIGWLQQKPGKSFKGLIYHGTNLDDGVPSRFSGSGSGTDYTLTISSLQPEDFATYYCVQYAQFPWTFGGGTKLEIKRTVAAPEIVLTQSPGTLSVSPGERATLSCRASQSIGSSLHWYQQKPGQAPRLLIKYASQSLSGIPDRFSGSGSGTDFTLTISRLEPEDFAVYYCHQSSRLPHTFGQGTKVEIK
GEO MEAN (EGFR on the cell surface): 24.1
